Results as given in the RNAGym collection of RNA variant scans (doi:10.7554/elife.80360).

B1: HDV Ribozyme (parent)
chain: GGCCGGCAUGGUCCCAGCCUCCUCGCUGGCGCCGGCUGGGCAACAUUCCGAGGGGACCGUCCCCUCGGUAAUGGCGAAUGGGACCCA

Variants of: B1
Assay: self-cleavage, relative activity (ratio to wild type); higher = more cleavage; co-transcriptional

| Variant | self-cleavage |
| --- | --- |
| GGCCGGCAUAGUCCCAGCCUCCUCGCUGGCGCCGGCUGGGCAACAUUCCGAGGGGACGGUCCCCUCGGUAAUGGCGAAUGGGACCCA [G10A C58G] | 0.939 |
| GGCCGGCAUAGUCCCAGCCUCCUCGCUGGCGCCGUCUGGGCAACAUUCCGAGGGGACCGUCCCCUCGGUAAUGGCGAAUGGGACCCA [G10A G35U] | 0.499 |
| GGCCGGCAUAGUCCCAGCCUCCUCGCUGGCGCCGCCUGGGCAACAUUCCGAGGGGACCGUCCCCUCGGUAAUGGCGAAUGGGACCCA [G10A G35C] | 0.1 |
| GGCCGGCAUAGUCCCAGCCUCCUCGCUGGCGCCGACUGGGCAACAUUCCGAGGGGACCGUCCCCUCGGUAAUGGCGAAUGGGACCCA [G10A G35A] | 0.281 |
| GGCCGGCAUAGUCCCAGCCUCCUCUCUGGCGCCGGCUGGGCAACAUUCCGAGGGGACCGUCCCCUCGGUAAUGGCGAAUGGGACCCA [G10A G25U] | 0.0678 |
| GGCCGGCAUAGUCCCAGCCUCCUCGCUGGCGCCGGCUGGGCAACAUUCCGAGGGGACCGUACCCUCGGUAAUGGCGAAUGGGACCCA [G10A C61A] | 0.674 |
| GGCCGGCAUAGUCCCAGCCUCCUCGCUGGCGCCGGCUGGGCAACAUUCCGAGGGGACCGUGCCCUCGGUAAUGGCGAAUGGGACCCA [G10A C61G] | 0.844 |
| GGCCGGCAUAGUCCCAGCCUCCUCGCUGGCUCCGGCUGGGCAACAUUCCGAGGGGACCGUCCCCUCGGUAAUGGCGAAUGGGACCCA [G10A G31U] | 0.226 |
| GGCCGGCAUAGUCCCAGCCUCCUCGCUGGCCCCGGCUGGGCAACAUUCCGAGGGGACCGUCCCCUCGGUAAUGGCGAAUGGGACCCA [G10A G31C] | 0.198 |
| GGCCGGCAUAGUCCCAGCCUCCUCGCUGGCGCCGGCUGGGCAACAUUCCGAGGGGACCGUCCCCUCGGUAAUGGCGAAUGGGACCAA [G10A C86A] | 0.82 |
| GGCCGGCAUAGUCCCAGCCUCCUCGCUGGCGCCGGCUGGGCAACAUUCCGAGGGGACCGUCCCCUCGGUAAUGGCGAAUGGGACCGA [G10A C86G] | 0.639 |
| GGCCGGCAUAGUCCCAGCCUCCUCGCUGGCGCCGGCUGGGCAACAUUCCGAGGGGACCGUCCCCUCGGUAAUGGCGAAUGGGACGCA [G10A C85G] | 0.892 |
| GGCCGGCAUAGUCCCACCCUCCUCGCUGGCGCCGGCUGGGCAACAUUCCGAGGGGACCGUCCCCUCGGUAAUGGCGAAUGGGACCCA [G10A G17C] | 0.341 |
| GGCCGGCAUAGUCCCAUCCUCCUCGCUGGCGCCGGCUGGGCAACAUUCCGAGGGGACCGUCCCCUCGGUAAUGGCGAAUGGGACCCA [G10A G17U] | 0.525 |
| GGCCGGCAUAGUCCCAGCCUCCUCGCUGGCGCCGGCUGGGCAACAUUCCGAGGGGACCGUCCCCUAGGUAAUGGCGAAUGGGACCCA [G10A C66A] | 0.82 |
| GGCCGGCAUAGUCCCAGCCUCCUCGCUGGCGCCGGCUGGGCAACAUUCCGAGGGGACCGUCCCCUUGGUAAUGGCGAAUGGGACCCA [G10A C66U] | 0.853 |

| Variant | self-cleavage |
| --- | --- |
| GGCCGGCAUAGUCCCAGCCUCCUCGCUUGCGCCGGCUGGGCAACAUUCCGAGGGGACCGUCCCCUCGGUAAUGGCGAAUGGGACCCA [G10A G28U] | 0.0848 |
| GGCCGGCAUAGUCCCAGCCUCCUCGCUCGCGCCGGCUGGGCAACAUUCCGAGGGGACCGUCCCCUCGGUAAUGGCGAAUGGGACCCA [G10A G28C] | 0.0683 |
| GGCCGGCAUAGUCCCAGCCUCCUCGCUAGCGCCGGCUGGGCAACAUUCCGAGGGGACCGUCCCCUCGGUAAUGGCGAAUGGGACCCA [G10A G28A] | 0.0336 |
| GGCCGGCAUAGUCCCAGCCUCCUCGCUGGCGCCGGCUAGGCAACAUUCCGAGGGGACCGUCCCCUCGGUAAUGGCGAAUGGGACCCA [G10A G38A] | 0.0607 |
| GGCCGGCAUAGUCCCAGCCUCCUCGCUGGCGCCGGCUCGGCAACAUUCCGAGGGGACCGUCCCCUCGGUAAUGGCGAAUGGGACCCA [G10A G38C] | 0.0692 |
| GGCCGGCAUAGUCCCAGCCUCCUCGCUGGCGCCGGCUGGGCAACAUUCCGAGGGGACCGUCCCCUCGGUAAUGGCGAAUGGGAUCCA [G10A C84U] | 0.54 |
| GGCCGGCAUACUCCCAGCCUCCUCGCUGGCGCCGGCUGGGCAACAUUCCGAGGGGACCGUCCCCUCGGUAAUGGCGAAUGGGACCCA [G10A G11C] | 0.256 |
| GGCCGGCAUAUUCCCAGCCUCCUCGCUGGCGCCGGCUGGGCAACAUUCCGAGGGGACCGUCCCCUCGGUAAUGGCGAAUGGGACCCA [G10A G11U] | 0.095 |
| GGCCGGCAUAGUCCCAGCCUCCUCGCUGGCGCCGGCUGGGCAACAUUACGAGGGGACCGUCCCCUCGGUAAUGGCGAAUGGGACCCA [G10A C48A] | 0.739 |
| GGCCGGCAUAGUCCCAGCCUCCUCGCUGGCGCCGGCUGGGCAACAUUGCGAGGGGACCGUCCCCUCGGUAAUGGCGAAUGGGACCCA [G10A C48G] | 0.671 |
| GGCCGGCAUAGUCCCAGCCUCCUCGCUGGCGCCGGCUGGGCAACAUUCCGAGGGGACCGUCCGCUCGGUAAUGGCGAAUGGGACCCA [G10A C63G] | 0.566 |
| GGCCGGCAUAGUCCCAGCCUCCUCGCUGGCGCCGGCUGGGCAACAUUCCGAGGGGACCGUCCCUUCGGUAAUGGCGAAUGGGACCCA [G10A C64U] | 0.661 |
| GGCCGGCAUAGUCCCAGCCUCCUCGCUGGCGCCGGCUGGGCAACAUUCUGAGGGGACCGUCCCCUCGGUAAUGGCGAAUGGGACCCA [G10A C49U] | 0.831 |
| GGCCGGCAUAGUCCCAGCCUCCUCGCUGGCGCCGGCUGGGCAACAUUCAGAGGGGACCGUCCCCUCGGUAAUGGCGAAUGGGACCCA [G10A C49A] | 0.665 |
| GGCCGGCAUAGUCCCAGCCUCCUCGCUGGCGCCGGCUGGGCAACAUUCCGAGGGGACCGUCUCCUCGGUAAUGGCGAAUGGGACCCA [G10A C62U] | 0.898 |
| GGCCGGCAUAGUCCCAGCCUCCUCGCUGGCGCCGGCUGGGCAACAUUCCGAGGGGACCGUCACCUCGGUAAUGGCGAAUGGGACCCA [G10A C62A] | 0.673 |
